{"source": "paper PMC12713088", "about": "“Arabidopsis TRB Proteins Form Two Closely Related Complexes to Mediate H3K4me3 Demethylation and Transcriptional Repression” (Advanced Science, 2025)", "binders": {"B1": {"name": "Probe 1 (P1) (dsDNA)", "DNA 1": "ATCGAATTTAGGGCAAAATG", "DNA 2": "CATTTTGCCCTAAATTCGAT"}, "B2": {"name": "TRB1-His, recombinant (natural protein, Arabidopsis thaliana, UniProt Q8VWK4 1-300, looked up)", "chain": "MGAPKQKWTQEEESALKSGVIKHGPGKWRTILKDPEFSGVLYLRSNVDLKDKWRNMSVMANGWGSREKSRLAVKRTFSLPKQEENSLALTNSLQSDEENVDATSGLQVSSNPPPRRPNVRLDSLIMEAIATLKEPGGCNKTTIGAYIEDQYHAPPDFKRLLSTKLKYLTSCGKLVKVKRKYRIPNSTPLSSHRRKGLGVFGGKQRTSSLPSPKTDIDEVNFQTRSQIDTEIARMKSMNVHEAAAVAAQAVAEAEAAMAEAEEAAKEAEAAEAEAEAAQAFAEEASKTLKGRNICKMMIRA", "notes": "TRB1, Arabidopsis thaliana, AT1G49950; full length in the vector pSMT3; pSMT3 is recalled to add an N-terminal His-SUMO; source: E. coli BL21, purified (His beads)"}, "B3": {"name": "Probe 1 for ITC (dsDNA)", "DNA 1": "ATCGAATTTAGGGCAAAATG", "DNA 2": "CATTTTGCCCTAAATTCGAT"}}, "key": {"TRB1;HTH1 [1]": {"target": "T1, TRB1;HTH1 (Arabidopsis thaliana;Arabidopsis …, UniProt Q8VWK4;Q9SHL4 1-300;1-275, |)", "T1 sequence 1": "B2 chain", "T1 sequence 2": "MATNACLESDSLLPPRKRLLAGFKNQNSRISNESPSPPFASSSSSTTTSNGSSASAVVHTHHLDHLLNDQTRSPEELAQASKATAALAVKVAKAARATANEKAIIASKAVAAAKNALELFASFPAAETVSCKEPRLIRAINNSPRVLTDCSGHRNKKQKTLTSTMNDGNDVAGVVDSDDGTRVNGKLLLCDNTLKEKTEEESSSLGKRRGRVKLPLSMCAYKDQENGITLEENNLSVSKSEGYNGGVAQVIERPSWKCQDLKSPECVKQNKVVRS", "test": "EMSA; larger complex, enhanced vs TRB1 alone; EMSA: 10 mM Tris-HCl pH 7.5, 50 mM NaCl, 1 mM EDTA, 5% glycerol, 1 mM DTT, 25 C, 30 min, 20 ng DNA + 1 ug protein; ITC: 20 mM Tris-HCl pH 7.5, 150 mM NaCl, 25 C, 5 uM protein, 100 uM DNA", "conditions": "protein: recombinant;recombinant; tags: His;His or MBP (EMSA construct not specified); label: Cy5 at 5' of strand 1; blunt"}, "TRB1;NAC050-N [2]": {"target": "T2, TRB1;NAC050-N (Arabidopsis thaliana;Arabidopsis …, UniProt Q8VWK4;Q9SQX9 1-300;1-184, |)", "T2 sequence 1": "B2 chain", "T2 sequence 2": "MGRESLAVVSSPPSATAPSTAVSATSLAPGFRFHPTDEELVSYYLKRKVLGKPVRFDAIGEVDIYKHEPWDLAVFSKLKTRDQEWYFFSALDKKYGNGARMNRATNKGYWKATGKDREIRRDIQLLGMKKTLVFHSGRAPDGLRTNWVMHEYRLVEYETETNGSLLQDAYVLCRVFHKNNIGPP", "test": "EMSA; larger complex, enhanced vs TRB1 alone; EMSA: 10 mM Tris-HCl pH 7.5, 50 mM NaCl, 1 mM EDTA, 5% glycerol, 1 mM DTT, 25 C, 30 min, 20 ng DNA + 1 ug protein; ITC: 20 mM Tris-HCl pH 7.5, 150 mM NaCl, 25 C, 5 uM protein, 100 uM DNA", "conditions": "protein: recombinant;recombinant; tags: His;MBP; label: Cy5 at 5' of strand 1; blunt"}, "TRB1-1": {"target": "T3, TRB1-1 (Arabidopsis thaliana, UniProt Q8VWK4 1-185)", "T3 sequence": "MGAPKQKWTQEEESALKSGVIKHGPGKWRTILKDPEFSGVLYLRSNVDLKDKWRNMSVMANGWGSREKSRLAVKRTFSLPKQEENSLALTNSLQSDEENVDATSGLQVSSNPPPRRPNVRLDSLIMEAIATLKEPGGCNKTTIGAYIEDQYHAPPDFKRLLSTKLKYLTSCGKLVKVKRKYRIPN", "test": "EMSA; EMSA: 10 mM Tris-HCl pH 7.5, 50 mM NaCl, 1 mM EDTA, 5% glycerol, 1 mM DTT, 25 C, 30 min, 20 ng DNA + 1 ug protein; ITC: 20 mM Tris-HCl pH 7.5, 150 mM NaCl, 25 C, 5 uM protein, 100 uM DNA", "conditions": "protein: recombinant; tags: His; label: Cy5 at 5' of strand 1; blunt"}, "TRB3": {"target": "T4, TRB3 (Arabidopsis thaliana, UniProt Q9M2X3 1-295)", "T4 sequence": "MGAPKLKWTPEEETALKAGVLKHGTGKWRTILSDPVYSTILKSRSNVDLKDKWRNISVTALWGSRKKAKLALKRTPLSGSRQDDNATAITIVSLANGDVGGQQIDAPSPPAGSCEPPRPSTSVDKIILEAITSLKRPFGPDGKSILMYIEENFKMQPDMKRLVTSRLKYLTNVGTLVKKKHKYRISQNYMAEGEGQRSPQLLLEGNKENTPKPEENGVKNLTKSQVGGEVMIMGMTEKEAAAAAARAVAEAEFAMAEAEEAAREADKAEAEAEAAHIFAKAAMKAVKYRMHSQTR", "test": "EMSA; EMSA: 10 mM Tris-HCl pH 7.5, 50 mM NaCl, 1 mM EDTA, 5% glycerol, 1 mM DTT, 25 C, 30 min, 20 ng DNA + 1 ug protein; ITC: 20 mM Tris-HCl pH 7.5, 150 mM NaCl, 25 C, 5 uM protein, 100 uM DNA", "conditions": "protein: recombinant; tags: His; label: Cy5 at 5' of strand 1; blunt"}, "TRB1-MybΔ-GH1Δ": {"target": "T5, TRB1-MybΔ-GH1Δ (Arabidopsis thaliana, UniProt Q8VWK4 61-300, del1-60;del114-185)", "T5 sequence": "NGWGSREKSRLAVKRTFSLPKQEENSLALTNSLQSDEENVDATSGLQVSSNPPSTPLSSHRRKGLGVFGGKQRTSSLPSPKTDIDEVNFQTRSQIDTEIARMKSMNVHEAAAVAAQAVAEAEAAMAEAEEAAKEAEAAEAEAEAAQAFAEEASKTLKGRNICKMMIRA", "test": "EMSA; EMSA: 10 mM Tris-HCl pH 7.5, 50 mM NaCl, 1 mM EDTA, 5% glycerol, 1 mM DTT, 25 C, 30 min, 20 ng DNA + 1 ug protein; ITC: 20 mM Tris-HCl pH 7.5, 150 mM NaCl, 25 C, 5 uM protein, 100 uM DNA", "conditions": "protein: recombinant; label: Cy5 at 5' of strand 1; blunt"}, "TRB2": {"target": "T6, TRB2 (Arabidopsis thaliana, UniProt Q9FJW5 1-299)", "T6 sequence": "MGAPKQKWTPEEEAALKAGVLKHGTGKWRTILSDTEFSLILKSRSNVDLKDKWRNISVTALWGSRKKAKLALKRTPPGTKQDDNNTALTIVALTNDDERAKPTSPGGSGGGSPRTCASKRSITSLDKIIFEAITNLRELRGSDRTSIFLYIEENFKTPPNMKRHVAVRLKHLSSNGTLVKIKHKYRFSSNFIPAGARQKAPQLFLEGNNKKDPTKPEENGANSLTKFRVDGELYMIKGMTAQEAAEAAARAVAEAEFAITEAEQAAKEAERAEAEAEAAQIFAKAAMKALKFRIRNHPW", "test": "EMSA; EMSA: 10 mM Tris-HCl pH 7.5, 50 mM NaCl, 1 mM EDTA, 5% glycerol, 1 mM DTT, 25 C, 30 min, 20 ng DNA + 1 ug protein; ITC: 20 mM Tris-HCl pH 7.5, 150 mM NaCl, 25 C, 5 uM protein, 100 uM DNA", "conditions": "protein: recombinant; tags: His; label: Cy5 at 5' of strand 1; blunt"}, "TRB1-GH1Δ": {"target": "T7, TRB1-GH1Δ (Arabidopsis thaliana, UniProt Q8VWK4 1-300, del114-185)", "T7 sequence": "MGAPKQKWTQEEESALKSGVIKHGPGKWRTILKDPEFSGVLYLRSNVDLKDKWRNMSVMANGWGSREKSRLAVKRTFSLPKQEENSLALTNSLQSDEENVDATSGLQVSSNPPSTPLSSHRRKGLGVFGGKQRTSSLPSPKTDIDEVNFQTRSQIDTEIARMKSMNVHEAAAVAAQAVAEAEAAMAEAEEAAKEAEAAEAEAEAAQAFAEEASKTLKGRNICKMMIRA", "test": "EMSA; EMSA: 10 mM Tris-HCl pH 7.5, 50 mM NaCl, 1 mM EDTA, 5% glycerol, 1 mM DTT, 25 C, 30 min, 20 ng DNA + 1 ug protein; ITC: 20 mM Tris-HCl pH 7.5, 150 mM NaCl, 25 C, 5 uM protein, 100 uM DNA", "conditions": "protein: recombinant; label: Cy5 at 5' of strand 1; blunt"}, "TRB1": {"target": "T8, TRB1 (Arabidopsis thaliana, UniProt Q8VWK4 1-300)", "T8 sequence": "B2 chain", "test": "EMSA; EMSA: 10 mM Tris-HCl pH 7.5, 50 mM NaCl, 1 mM EDTA, 5% glycerol, 1 mM DTT, 25 C, 30 min, 20 ng DNA + 1 ug protein; ITC: 20 mM Tris-HCl pH 7.5, 150 mM NaCl, 25 C, 5 uM protein, 100 uM DNA", "conditions": "protein: recombinant; tags: His; label: Cy5 at 5' of strand 1; blunt"}, "[3]": {"target": "T9, ICU11, recombinant, GST- or MBP-tagged (pull-down) (Arabidopsis thaliana, UniProt Q3ED68 1-397)", "T9 construct": "ICU11, Arabidopsis thaliana, AT1G22950; full length in pGEX6P-1 (GST) or pET-30a (MBP); source: E. coli BL21, purified (GST beads or MBP beads); not shown: GST or MBP (both forms were made)", "T9 sequence (looked up)": "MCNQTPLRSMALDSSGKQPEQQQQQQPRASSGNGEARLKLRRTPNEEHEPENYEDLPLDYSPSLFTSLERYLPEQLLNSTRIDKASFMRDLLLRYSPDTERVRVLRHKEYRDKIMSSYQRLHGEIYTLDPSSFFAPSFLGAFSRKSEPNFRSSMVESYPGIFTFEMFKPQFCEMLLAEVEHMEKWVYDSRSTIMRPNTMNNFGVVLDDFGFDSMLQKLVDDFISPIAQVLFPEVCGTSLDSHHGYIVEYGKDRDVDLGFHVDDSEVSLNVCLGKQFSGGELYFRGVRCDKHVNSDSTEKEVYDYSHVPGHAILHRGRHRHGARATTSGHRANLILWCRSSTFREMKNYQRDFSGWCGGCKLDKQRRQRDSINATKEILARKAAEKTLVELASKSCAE", "test": "pull-down; purified proteins mixed in GST-tag lysis buffer (20 mM Tris-HCl pH 7.5, 150 mM NaCl, 1 mM DTT) at 4 °C for 1 h, then GST or MBP beads; immunoblot with GST, MBP or His antibody", "conditions": "both partners purified"}, "[4]": {"target": "T10, ICU11-GST, recombinant (gel filtration) (Arabidopsis thaliana, UniProt Q3ED68 1-397)", "T10 construct": "ICU11, Arabidopsis thaliana, AT1G22950; full length in pGEX6P-1; May be the same construct as m20 in some pull-downs; source: E. coli BL21, purified (GST beads)", "T10 sequence (looked up)": "T9 sequence (looked up)", "test": "SEC; purified proteins mixed in equivalent molar amounts, 4 °C overnight, Superose 6 10/300GL; fractions detected by immunoblotting (GST, FLAG, MBP, HIS)", "conditions": "both partners purified"}, "TRB1;HTH1 [5]": {"target": "T1, TRB1;HTH1", "test": "ITC; enhanced vs TRB1 alone; Kd only in figure; EMSA: 10 mM Tris-HCl pH 7.5, 50 mM NaCl, 1 mM EDTA, 5% glycerol, 1 mM DTT, 25 C, 30 min, 20 ng DNA + 1 ug protein; ITC: 20 mM Tris-HCl pH 7.5, 150 mM NaCl, 25 C, 5 uM protein, 100 uM DNA", "conditions": "protein: recombinant;recombinant; tags: His;His or MBP (EMSA construct not specified); blunt"}, "TRB1;NAC050-N [6]": {"target": "T2, TRB1;NAC050-N", "test": "ITC; enhanced vs TRB1 alone; Kd only in figure; EMSA: 10 mM Tris-HCl pH 7.5, 50 mM NaCl, 1 mM EDTA, 5% glycerol, 1 mM DTT, 25 C, 30 min, 20 ng DNA + 1 ug protein; ITC: 20 mM Tris-HCl pH 7.5, 150 mM NaCl, 25 C, 5 uM protein, 100 uM DNA", "conditions": "protein: recombinant;recombinant; tags: His;MBP; blunt"}}}
{"binder": "B1", "values": [{"measurement": "binding result", "setting": "TRB1;HTH1 [1]", "result": "binds"}, {"measurement": "binding result", "setting": "TRB1;NAC050-N [2]", "result": "binds"}, {"measurement": "binding result", "setting": "TRB1-1", "result": "binds"}, {"measurement": "binding result", "setting": "TRB3", "result": "binds"}, {"measurement": "binding result", "setting": "TRB1-MybΔ-GH1Δ", "result": "no binding"}, {"measurement": "binding result", "setting": "TRB2", "result": "binds"}, {"measurement": "binding result", "setting": "TRB1-GH1Δ", "result": "binds"}, {"measurement": "binding result", "setting": "TRB1", "result": "binds"}]}
{"binder": "B2", "values": [{"measurement": "binding result", "setting": "[3]", "result": "binds"}, {"measurement": "binding result", "setting": "[4]", "result": "binds"}]}
{"binder": "B3", "values": [{"measurement": "binding result", "setting": "TRB1;HTH1 [5]", "result": "binds"}, {"measurement": "binding result", "setting": "TRB1;NAC050-N [6]", "result": "binds"}]}
